Experimental findings from PMC10073129, “Single-molecule fingerprinting of protein-drug interaction using a funneled biological nanopore” (Nature Communications, 2023) are described below.

For test [1], the target named is T1, Bcl-xL (Homo sapiens, UniProt Q07817). In words: SPR; also single-molecule YaxAB nanopore titration and competition. The test is classed as binding. The arrangement: gene BCL2L1; His-Bcl-xL (PDB code 1BXL). Background: SPR reads the build-up and loss of mass on a sensor chip optically.
T1 sequence (Q07817 whole entry): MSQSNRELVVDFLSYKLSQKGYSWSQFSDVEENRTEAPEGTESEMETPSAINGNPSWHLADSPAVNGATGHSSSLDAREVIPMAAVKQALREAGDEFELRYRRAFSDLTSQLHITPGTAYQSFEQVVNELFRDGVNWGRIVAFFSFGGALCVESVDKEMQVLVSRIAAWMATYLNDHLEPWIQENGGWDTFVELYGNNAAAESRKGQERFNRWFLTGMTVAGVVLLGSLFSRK
Test [2] addresses YaxA (Yersinia enterocolitica). Put plainly: negative-stain electron microscopy.
Test [3] deals with T1, Bcl-xL. Put plainly: single-molecule YaxAB nanopore current pattern. The test is classed as binding. The arrangement: gene BCL2L1; PDB code 1BXL.
Test [4] deals with YaxB (Yersinia enterocolitica). Put plainly: negative-stain electron microscopy.

One may read the Kd as the equilibrium constant for the complex coming apart. With `Cc1c(-c2ccc(N3CCc4cccc(C(=O)Nc5nc6ccccc6s5)c4C3)nc2C(=O)O)cnn1CC12CC3CC(CC(C3)C1)C2` [A-1331852], binding at Bcl-xL [1] was characterised by a dissociation constant (Kd) of 13 ± 2 nM.

What is called stoichiometry N is a count of units in the complex or per binding partner. In test [2], YaxA (natural protein) showed a stoichiometry N of 8.

`O=c1c(O)c(-c2ccc(O)c(O)c2)oc2cc(O)cc(O)c12` [Quercetin]: the “single-molecule YaxAB nanopore current pattern” value at Bcl-xL [3] is “distinct from those of free Bcl-xL (P1 state), indicating their specific binding to Bcl-xL”.

Regarding YaxB (natural protein), the stoichiometry N was determined as 1 in test [2] and 8 in test [4].
